# Measurements: patent US5618693, “Interleukin-2 signal transducers and binding assays” (Tularik, Inc.)
# Target: hStat 5 (affinity purified, 98/94/88 kD from YT cells; 96/95 kD from PBLs) (Homo sapiens, UniProt P42229 SEQ:1-794)
# Experiment: pulldown; biotinylated DNA on streptavidin agarose, buffer C, 4 C; retained through wash with mutant oligo 0.2 mg/ml, eluted 0.35 M NaCl
# Details: tags: native, tyrosine phosphorylated; chain copies: 2
# Protocol: After dialysis, insoluble proteins were removed by centrifugation and the remaining material was chromatographed over a 100 ml S-Sepharose (Pharmacia) column. Protein flow-through was mixed with a DNA-affinity resin prepared by coupling synthetic, biotinylated DNA corresponding to the IL-4 response element of the gene encoding FcgRI (5'-[…]-3) (SEQ ID NO:3) to streptavidin agarose (Sigma). After binding (2 hours at 4° C.), the affinity matrix was placed on a disposable column and washed sequentially with 10 ml of buffer C, 4 ml of buffer C supplemented with a mutated variant of the IL-4 response element (5'-GTATCACCAGTCAAGGAAC-3') (SEQ ID NO:4) at 0.2 mg/ml, and 10 ml of buffer C. Protein was eluted by exposure to buffer C supplemented with 0.35M NaCl, dialyzed against buffer C, and placed on a 0.5 ml Q-Sepharose (Pharmacia) column. The column was washed with 5 ml of buffer C and protein was eluted with 1 ml of buffer C supplemented with 0.35M NaCl.
# Chain of hStat 5 (affinity purified, 98/94/88 kD from YT cells; 96/95 kD from PBLs) (P42229 whole entry): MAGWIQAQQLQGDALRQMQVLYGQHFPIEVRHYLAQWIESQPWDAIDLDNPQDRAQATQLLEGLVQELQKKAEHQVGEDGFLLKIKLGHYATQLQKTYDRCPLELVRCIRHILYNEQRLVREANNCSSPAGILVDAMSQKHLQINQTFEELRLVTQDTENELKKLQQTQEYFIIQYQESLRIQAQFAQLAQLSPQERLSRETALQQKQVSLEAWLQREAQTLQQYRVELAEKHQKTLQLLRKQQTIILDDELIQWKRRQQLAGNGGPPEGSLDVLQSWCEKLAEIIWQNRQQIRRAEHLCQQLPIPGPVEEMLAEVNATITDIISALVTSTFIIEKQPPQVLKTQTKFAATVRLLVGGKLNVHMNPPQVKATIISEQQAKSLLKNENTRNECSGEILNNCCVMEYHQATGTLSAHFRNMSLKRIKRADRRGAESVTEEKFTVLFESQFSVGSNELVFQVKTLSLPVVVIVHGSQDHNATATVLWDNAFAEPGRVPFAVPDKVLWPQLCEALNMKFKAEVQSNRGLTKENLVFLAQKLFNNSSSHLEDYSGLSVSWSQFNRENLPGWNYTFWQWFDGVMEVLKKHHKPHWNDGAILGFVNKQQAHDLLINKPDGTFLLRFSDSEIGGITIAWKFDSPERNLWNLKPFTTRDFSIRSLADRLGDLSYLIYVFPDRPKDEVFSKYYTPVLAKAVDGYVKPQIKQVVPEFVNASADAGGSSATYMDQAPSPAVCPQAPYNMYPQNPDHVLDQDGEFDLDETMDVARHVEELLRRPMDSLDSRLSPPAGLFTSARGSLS
binder,measurement,value
FcgRI IL-4 response element probe (dsDNA) DNA 1: GTATTTCCCAGAAAAGGAAC DNA 2: GTTCCTTTTCTGGGAAATAC,binding result,binds
